The results in this text go back to patent US20210054355A1 (NEW YORK UNIVERSITY, published 2021).

The target in test [1] is T1, FGFR1c^ecto (human FGFR1c ligand-binding domain, D2, D3 and D2-D3 linker) (human, UniProt P11362 142-365).
T1 sequence: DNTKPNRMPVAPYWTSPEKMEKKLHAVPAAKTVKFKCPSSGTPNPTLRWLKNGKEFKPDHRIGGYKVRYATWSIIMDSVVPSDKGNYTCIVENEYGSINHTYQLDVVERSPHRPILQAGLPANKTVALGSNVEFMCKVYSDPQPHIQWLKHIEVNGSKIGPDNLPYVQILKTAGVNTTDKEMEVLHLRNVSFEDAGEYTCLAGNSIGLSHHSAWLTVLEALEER
In words: crystal structure of the ternary complex, 3.0 Å. Here is the method:
To prepare the FGF23-FGFR1c^ecto-αKlotho^ecto complex, its purified components were mixed at a molar ratio of 1.2:1.2:1 and spin-concentrated using an Amicon Ultra-15 concentrator (#UFC901024, Merck Millipore, Germany). The concentrated sample was applied to a Superdex 200 column (GE Healthcare, USA) and eluted isocratically in 25 mM HEPES pH 7.5 buffer containing 500 mM NaCl and 100 mM (NH₄)₂SO₄. Column peak fractions were analyzed by SDS-PAGE and peak fractions containing the ternary complex were concentrated to 7 mg/ml. Concentrated ternary complex was screened for crystallization by sitting drop vapor diffusion. A range of commercially available crystallization screen kits was used: Protein Complex Suite (#130715), Classics Suite (#130701), Classics II Suite (#130723), and Classics Lite Suite (#130702) from Qiagen, Germany; Crystal Screen (#HR2-110), Crystal Screen 2 (#HR2-112), Crystal Screen Lite (#HR2-128), PEG/Ion Screen (#HR2-126), and PEGRx1 (#HR2-082) from Hampton Research, USA; and PEG Grid Screening Kit (#36436) and Crystallization Cryo Kit (#75403) from Sigma-Aldrich, USA. Drops consisting of 100 nl reservoir solution and 100 nl protein complex solution were equilibrated against 100 μl well volume set up in 96-well plates (Fisher Scientific, USA) using a Mosquito crystallization robot (TTP Labtech, U.K.). […]

The target of test [2] is T2, Soluble human α-Klotho ectodomain (αKlotho^ecto) (human, UniProt Q9UEF7 34-981).
T2 construct: also called wild-type αKlotho^ecto; soluble αKlotho
T2 sequence: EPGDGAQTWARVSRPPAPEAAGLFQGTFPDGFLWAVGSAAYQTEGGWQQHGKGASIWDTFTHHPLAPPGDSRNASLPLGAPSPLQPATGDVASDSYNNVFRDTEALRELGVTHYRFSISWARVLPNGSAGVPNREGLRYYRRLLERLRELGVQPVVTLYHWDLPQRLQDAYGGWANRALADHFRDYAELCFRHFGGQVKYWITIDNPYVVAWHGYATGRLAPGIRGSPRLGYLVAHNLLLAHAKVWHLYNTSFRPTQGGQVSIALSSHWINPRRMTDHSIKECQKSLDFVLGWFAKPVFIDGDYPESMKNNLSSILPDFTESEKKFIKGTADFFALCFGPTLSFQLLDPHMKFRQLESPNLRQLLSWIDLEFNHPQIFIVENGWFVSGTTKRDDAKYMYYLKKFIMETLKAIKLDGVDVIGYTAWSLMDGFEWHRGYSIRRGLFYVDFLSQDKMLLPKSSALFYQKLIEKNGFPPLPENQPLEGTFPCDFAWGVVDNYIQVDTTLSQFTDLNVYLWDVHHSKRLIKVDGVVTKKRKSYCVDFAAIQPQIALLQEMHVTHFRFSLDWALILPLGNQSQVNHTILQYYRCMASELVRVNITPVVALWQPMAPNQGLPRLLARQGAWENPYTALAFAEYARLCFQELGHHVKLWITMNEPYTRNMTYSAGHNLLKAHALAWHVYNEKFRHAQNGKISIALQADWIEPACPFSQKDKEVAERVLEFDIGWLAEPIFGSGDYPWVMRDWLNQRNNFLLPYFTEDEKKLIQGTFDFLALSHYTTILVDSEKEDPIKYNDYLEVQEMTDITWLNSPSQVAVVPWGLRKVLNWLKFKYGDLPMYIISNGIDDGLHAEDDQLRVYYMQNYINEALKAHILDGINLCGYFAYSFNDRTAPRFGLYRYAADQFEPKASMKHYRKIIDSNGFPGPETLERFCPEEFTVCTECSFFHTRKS
In words: size-exclusion chromatography of the mixture, with Coomassie-stained SDS-PAGE of the eluted peak fractions [left].

B1: FGF23^WT (human FGF23 Y25 to S205 with R176Q/R179Q, protease-resistant minimal protein) (ligand)
chain: YPNASPLLGSSWGGLIHLYTATARNSYHLQIHKNGHVDGAPHQTIYSALMIRSEDAGFVVITGVMSRRYLCMDFRGNIFGSHYFDPENCRFQHQTLENGYDVYHSPQYHFLVSLGRAKRAFLPGMNPPPYSQFLSRRNEIPLIHFNTPIPRQHTQSAEDDSERDPLNVLKPRARMTPAPAS
notes: also called wild-type FGF23; minimal FGF23
Regarding B1, the binding result in test [1] and in test [2] was “binds” throughout.
